In test [1] the target is C3b (UniProt P01024). Put plainly: cell-based or functional assay.
The target in test [2] is C3b (UniProt P01024). Put plainly: SPR (Biacore), FH flowed over C3b amine-coupled to a CM5 chip; steady-state fit to two flow cells (1540 and 3030 RU C3b) together. In general terms: SPR reads the build-up and loss of mass on a sensor chip optically.

C3b, sequence (P01024 749-1663 limits assumed, chain 1 of 2): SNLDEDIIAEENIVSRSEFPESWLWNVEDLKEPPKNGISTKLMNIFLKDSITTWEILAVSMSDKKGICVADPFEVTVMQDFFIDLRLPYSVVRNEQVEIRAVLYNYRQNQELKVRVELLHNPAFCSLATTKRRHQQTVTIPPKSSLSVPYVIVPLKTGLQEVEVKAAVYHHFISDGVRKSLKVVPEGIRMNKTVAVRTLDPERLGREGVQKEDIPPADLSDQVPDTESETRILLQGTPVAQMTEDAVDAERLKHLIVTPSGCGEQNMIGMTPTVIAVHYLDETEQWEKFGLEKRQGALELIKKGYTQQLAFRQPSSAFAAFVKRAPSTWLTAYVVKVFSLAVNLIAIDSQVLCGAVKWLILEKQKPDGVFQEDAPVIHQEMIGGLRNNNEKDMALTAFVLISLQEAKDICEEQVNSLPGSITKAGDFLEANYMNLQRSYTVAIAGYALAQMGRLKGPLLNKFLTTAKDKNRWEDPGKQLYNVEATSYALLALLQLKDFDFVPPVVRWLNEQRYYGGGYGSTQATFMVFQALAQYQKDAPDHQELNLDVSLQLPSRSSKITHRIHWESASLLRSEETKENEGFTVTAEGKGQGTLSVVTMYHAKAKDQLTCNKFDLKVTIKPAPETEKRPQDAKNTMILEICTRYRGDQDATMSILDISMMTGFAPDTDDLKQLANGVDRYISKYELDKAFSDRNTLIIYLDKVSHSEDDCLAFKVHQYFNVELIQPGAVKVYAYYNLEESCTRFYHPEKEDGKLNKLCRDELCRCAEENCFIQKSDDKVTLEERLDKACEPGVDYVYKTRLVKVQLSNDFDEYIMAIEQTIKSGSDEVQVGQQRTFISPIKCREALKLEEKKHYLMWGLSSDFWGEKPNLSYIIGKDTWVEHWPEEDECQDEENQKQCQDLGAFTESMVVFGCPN
C3b, sequence (P01024 23-667 limits assumed, chain 2 of 2): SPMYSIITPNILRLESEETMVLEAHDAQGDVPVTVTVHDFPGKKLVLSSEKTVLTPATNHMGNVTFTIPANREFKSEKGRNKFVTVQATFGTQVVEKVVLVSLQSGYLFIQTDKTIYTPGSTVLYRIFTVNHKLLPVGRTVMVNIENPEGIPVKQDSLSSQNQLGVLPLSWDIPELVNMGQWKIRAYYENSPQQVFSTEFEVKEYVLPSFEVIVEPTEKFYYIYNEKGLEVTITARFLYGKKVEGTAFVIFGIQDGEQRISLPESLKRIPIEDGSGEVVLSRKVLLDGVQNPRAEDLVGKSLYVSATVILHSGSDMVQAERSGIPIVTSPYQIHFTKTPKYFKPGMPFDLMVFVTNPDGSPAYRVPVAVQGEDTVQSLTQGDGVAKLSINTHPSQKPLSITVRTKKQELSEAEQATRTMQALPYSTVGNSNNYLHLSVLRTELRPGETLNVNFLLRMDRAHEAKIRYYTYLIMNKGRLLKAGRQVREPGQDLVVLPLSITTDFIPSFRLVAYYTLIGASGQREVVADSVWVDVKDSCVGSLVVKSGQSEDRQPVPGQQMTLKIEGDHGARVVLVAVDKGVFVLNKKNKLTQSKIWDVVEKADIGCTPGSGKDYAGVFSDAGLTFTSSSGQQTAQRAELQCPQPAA

As usually defined, the Kd is the constant that tells how readily two partners part at equilibrium. A lower Kd goes with tighter binding. The substance “recombinant human complement factor H produced in Pichia pastoris from codon-optimised DNA (Example 2) (from UniProt P08603 19-1231)” came in with a cofactor for factor I-catalysed cleavage of C3b to iC3b (SDS-PAGE, Coomassie blue) with C3b [1] of less than 5 min. This substance registered a Kd in the test with C3b [2] of 1400 nM.

For the origin of these results see patent publication US20170335310A1.
